From patent publication US20210180062

| Substance | GAP activity (reduction of GTP-bound small G protein, pull-down with effector-domain beads) (Ras) | GAP activity (reduction of GTP-bound small G protein, pull-down with effector-domain beads) (Rac1) | GAP activity (reduction of GTP-bound small G protein, pull-down with effector-domain beads) (Rap1) |
| --- | --- | --- | --- |
| SynGAP α1 (isoform construct co-transfected in the small GTPase assay) | SynGAP α1 and α2 has mild preference towards Ras rather than Rap |  |  |
| SynGAP α2 (isoform construct co-transfected in the small GTPase assay) | SynGAP α1 and α2 has mild preference towards Ras rather than Rap |  |  |
| SynGAP β (isoform construct co-transfected in the small GTPase assay) | SynGAP β generally has highest GAP activity into all small G proteins among other isoforms | SynGAP β generally has highest GAP activity into all small G proteins among other isoforms |  |
| SynGAP γ (isoform construct co-transfected in the small GTPase assay) |  |  | SynGAP β and γ has mild preference towards Rap1 |
